# Reference: article PMC5336275
# Biological target: Thermus thermophilus SoxB (Thermus thermophilus) (UniProt Q72IT0)
# Experiment: ITC; SoxB (50 μM) in the cell, SoxYZ as the titrant; 25°C; 30 mM Tris/HCl pH 8.0, 200 mM NaCl; two replicate experiments fitted together to a hetero-association model (A + B ↔ AB)
# Sequence of UniProt Q72IT0 (Q72IT0 entry or part of it): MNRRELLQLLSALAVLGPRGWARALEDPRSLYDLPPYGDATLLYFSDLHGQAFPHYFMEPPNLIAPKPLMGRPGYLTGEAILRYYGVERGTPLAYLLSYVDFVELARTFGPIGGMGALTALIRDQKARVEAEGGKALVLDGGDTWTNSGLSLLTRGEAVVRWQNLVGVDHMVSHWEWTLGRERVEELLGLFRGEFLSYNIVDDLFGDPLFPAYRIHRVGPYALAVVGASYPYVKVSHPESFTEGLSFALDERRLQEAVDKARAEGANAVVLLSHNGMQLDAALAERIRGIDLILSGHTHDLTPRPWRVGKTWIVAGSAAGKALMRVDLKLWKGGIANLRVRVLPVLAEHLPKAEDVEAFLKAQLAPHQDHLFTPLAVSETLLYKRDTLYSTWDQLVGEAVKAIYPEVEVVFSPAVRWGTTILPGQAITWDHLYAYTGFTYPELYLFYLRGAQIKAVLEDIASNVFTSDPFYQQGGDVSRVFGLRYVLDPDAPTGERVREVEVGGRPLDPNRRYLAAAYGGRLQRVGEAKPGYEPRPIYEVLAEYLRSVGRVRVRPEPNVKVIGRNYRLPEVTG
Kd [µM],dH [kcal/mol],Substance
30,-2,Thermus thermophilus SoxYZ-S-sulfonate (from UniProt Q72IS6 1-152; Q72IS7 1-108) (complex)
10,-5,Thermus thermophilus SoxY_(C151E)Z variant (from UniProt Q72IS6 1-152; Q72IS7 1-108) (complex)
